Laboratory results reported in publication PMC7274078, “Brain Endothelial Cells Regulate Glucagon-Like Peptide 1 Entry Into the Brain via a Receptor-Mediated Process” (Frontiers in Physiology, 2020).

Legend:
[1] = Circulating GLP-1-FAM / exendin-4-FAM uptake by the brain; type: in vivo; details: rat, systemic infusion 30 pmol/kg/min for 10 min; cerebellum, cortex, hippocampus, hypothalamus, brain stem; FAM fluorescence in lysates corrected for vascular space with Dextran-TRITC; n = 7 (GLP-1-FAM), n = 6 (exendin-4-FAM)
Protocol: Rats received a systemic infusion of either saline or exendin-(9-39) (GLP-1 receptor antagonist, 30 nmol/kg/min, Abcam, Cambridge, United Kingdom) via the jugular vein catheter for 20 min (Figure 1A). In the last 10 min, rats also received 30 pmol/kg/min of either GLP-1-FAM (AnaSpec, Fremont, CA, United States) or exendin-4-FAM (AnaSpec, Fremont, CA, United States) together with Dextran-TRITC (Sigma-Aldrich, St. Louis, MO, United States) (70 kD, vascular space marker, 30 pmol/kg/min). […] After collecting plasma samples, rats were sacrificed via anesthetic overdose and various brain regions (cerebellum, cortex, hippocampus, hypothalamus, and brain stem) collected, homogenized and lysed in lysis buffer. Fluorescence from TRITC and FAM were measured in both plasma and brain lysates. Protein concentrations were determined in the brain lysates. Brain uptake of GLP-1-FAM and exendin-4-FAM were calculated using the following formula:
Tissue fluorescence [FAM]/Tissue weight (μg)−TissueFluorescence [TRITC]/Weight(μg)/PlasmaFluorescence [TRITC]/200(μL)×Plasma Fluorescence [FAM]/200μL
FIGURE 1 GLP-1 and GLP-1 analog exendin-4 enter various brain regions via GLP-1 receptor-mediated process. (A) Protocol. […]

[2] = tested on: Rat brain microvascular endothelial cells (RBMECs); assay: Endothelial cell uptake of GLP-1-FAM; type: cell-based; details: confocal fluorescence
Protocol: Rat brain microvascular endothelial cells (RBMECs; Cell Applications, San Diego, CA, United States) were cultured on a cover slip in rat brain endothelial cell growth medium. After reaching confluency, cells were pre-treated with vehicle (PSS buffer), exendin 9-39 (10 nM) or H89 (Sigma-Aldrich, St. Louis, MO, United States) (10 μM) for 30 min or forskolin (Sigma-Aldrich, St. Louis, MO, United States) (10 μM) for 5 min. Cells were then incubated with GLP-1-FAM at either 10, 100 or 1,000 pM for 3 min at 37°C. DAPI was used to stain the nucleus. After fixation and washing three times with cold TBST (5 min each time), cell images were captured using confocal microscope and fluorescence intensity measured using ImageJ software^1. FAM signal from surface binding of FAM was examined by incubating cells with GLP-1-FAM at 4 or 37°C for 3 min, or free FAM (10, 100, and 1,000 pM) at 37°C for 3 min.
FIGURE 5 GLP-1 uptake by RBMECs is GLP-1 receptor and PKA dependent. RBMECs were pretreated with vehicle (PSS buffer, A,E,I), Exendin 9-39 (10 nM, B,F,J) or H89 (10 μM, C,G,K) for 30 min. Cells were then incubated with GLP-1-FAM at 10, 100 pM or 1 nM for 3 min. DAPI was used to stain the nucleus. Images were captured using confocal microscope. Fluorescence density was analyzed using ImageJ. (D,H,L) Quantitative analysis (n = 3, *p < 0.01, vs. vehicle, Student’s t test). GLP-1R – GLP-1 receptor.
FIGURE 6 cAMP agonist increases GLP-1 uptake by RBMECs. (A) RBMECs were incubated with GLP-1-FAM at 10 pM for 3 min with or without 10 μM forskolin. DAPI was used to stain the nucleus. Images was captured using confocal microscope. Fluorescence density was analyzed using ImageJ. (B) quantitative analysis of the images (n = 6, *p < 0.05, vs. vehicle, Student’s t test).

[3] = tested on: RBMEC and astrocyte barrier; assay: Trans-endothelial GLP-1 transport (Transwell artificial BBB); type: in vitro ADME, rat
Protocol: The trans-endothelial GLP-1 transport was examined using a Transwell system that mimics the BBB in that RBMECs were co-cultured with astrocytes as illustrated in Figure 7A and previously described ([Gaillard et al., 2001]). Briefly, astrocytes (Thermo Fisher Scientific, Waltham, MA, United States) were seeded on the bottom and RBMECs were then seeded onto the top of the Transwell insert (6.5 mm diameter, 1 μm pore size, polyester membrane; Corning, Corning, NY, United States). Trans-endothelial electrical resistance was monitored using a volt-ohmmeter (EVOM; WPI, Sarasota, FL, United States) and EndOhm chamber (EndOhm; WPI). When the trans-endothelial electrical resistance reached its peak, the insert with double cell layers was washed twice at 37°C with PBS buffer. […] The amount of GLP-1-FAM or inulin-FITC transported to the lower chamber was determined by measuring FAM and FITC fluorescence in the lower chamber at 5, 10, and 30 min. Inulin-FITC transport was used to correct for paracellular transport and the amount of trans-endothelial transport of GLP-1-FAM was calculated using the formula:
Transcellular transport (%)=Fluorescence [FAM]/Reference [FAM]×100−Fluorescence [FITC]/Reference [FITC]×100
Reference refers to fluorescence in the lower chamber at the specified time point when the Transwell inserts had no cells seeded. To determine if this trans-endothelial transport is dose-dependent, 10, 100, and 1,000 pM GLP-1-FAM or inulin-FITC (with DDP-4 inhibitor) was loaded into the upper chamber, the amount of GLP-1-FAM or inulin-FITC in the lower chamber was determined at 10 min, and trans-endothelial transport of GLP-1 was calculated.
FIGURE 7 Trans-endothelial transport of GLP-1 is a GLP-1 receptor-mediated process. […] GLP-1-FAM or inulin-FITC transport to the lower chamber was determined by measuring FAM and FITC fluorescence in the lower chamber. […]

DPP4 = details: no reference given; cited from earlier work
Excerpt: GLP-1 receptors are expressed in multiple brain areas in rodents, primates, and humans and they are involved in learning, neuroprotection and regulation of appetite and satiety ([Wei and Mojsov, 1995]; [During et al., 2003]; [Richards et al., 2014]). Global knockout of the GLP-1 receptor in mice impairs synaptic plasticity and memory formation ([Abbas et al., 2009]). […] Indeed, pre-treatment of animals w ...

[4] = in vivo; cited from earlier work
Excerpt: Peptides cross the BBB via transcellular vesicular pathways that may be either constitutive or regulated. […] This is similar to leptin ([Banks et al., 1996]) and insulin ([Gray et al., 2014]; [Meijer et al., 2016]), two appetite regulating hormones secreted peripherally that enter into the brain. || The central actions of GLP-1 and its analogs have been well recognized. GLP-1 analogs have been repeatedly shown to cross the BBB, stimulate brain GLP-1 receptors, and modulate mitochondrial function, protein aggregation, neuroinflammation, synaptic plasticity, learning and memory in experimental models of Parkinson's and Alzheimer's disease ([Athauda and Foltynie, 2016]). Our observation that peripherally administrated GLP-1 and exendin-4 rapidly enter various brain regions is consistent with prior findings that peripherally injected GLP-1 analogs can easily enter the brain ([[…] and Akers ...

| Substance | FAM-labeled peptide detected in brain regions (brain uptake) [1] | RBMEC uptake ([2]; 10, 100 and 1,000 pM, 3 min at 37°C, ImageJ) | RBMEC uptake at 4°C ([2]; 3 min at 4°C) | concentration dependence of trans-endothelial transport ([3]; Transwell, 10, 100 and 1000 pM, 10 min, with DPP4 inhibitor, n = 6, p = 0.37) | transport across the RBMEC and astrocyte barrier, time course ([3]; Transwell, RBMECs co-cultured with astrocytes, 100 pM in upper chamber with DPP4 inhibitor, lower chamber fluorescence at 5, 10 and 30 min, corrected for paracellular transport with inulin-FITC, n = 7) | half-life (DPP4) | stability to DPP4 (DPP4) | time to detection in the brain after intravenous injection [4] |
| --- | --- | --- | --- | --- | --- | --- | --- | --- |
| GLP-1-FAM: FAM-labeled GLP-1 (AnaSpec) | detected in various brain regions | actively took up | did not take up | does not appear to be concentration dependent | crossed the barrier in a time-dependent fashion |  |  |  |
| exendin-4 |  |  |  |  |  | 1.5 h | DPP4 resistant | ≤ 5 min |
